Literature values as cited in article PMC2854688.
Values joined by “and” are separate entries in the source; they are usually repeats but may differ in a detail not shown here. Equal entries are not always repeated.

Columns and labels:
[1] = biological target: eRF3 PAM2 peptide PAM2 (Homo sapiens) (UniProt P15170)
[2] = biological target: eRF3 overlapping PAM2 peptide PAM2 (Homo sapiens) (UniProt P15170)

In the case of “PABPC1 MLLE domain MLLE (from UniProt P11940)”, the Kd [1] is listed as 3.9 µM and 3.1 µM and the Kd [2] is listed as 1.3 µM.
